Experimental data from US20170145086A1 (VISTERRA, published 2017).

T1: HA-GCN4 hAPRIL (amino acid residues 105-250) (human, UniProt O75888 105-250)
T1 construct: Bought (R&D Systems); also called HA-tagged GCN4 human APRIL; HA-GCN4-huAPRIL; not shown: N-terminal HA tag; GCN4 isoleucine zipper oligomerization domain
T1 sequence: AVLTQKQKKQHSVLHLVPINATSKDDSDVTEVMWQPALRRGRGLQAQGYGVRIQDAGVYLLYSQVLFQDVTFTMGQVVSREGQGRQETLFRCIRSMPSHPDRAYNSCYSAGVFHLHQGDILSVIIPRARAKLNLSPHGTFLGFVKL


Legend:
[1] = molecular target: T1, HA-GCN4 hAPRIL (amino acid residues …); assay: blocking ELISA; blocked: human APRIL binding to TACI-Fc
[2] = molecular target: T1, HA-GCN4 hAPRIL (amino acid residues …); assay: blocking ELISA; blocked: human APRIL binding to BCMA-Fc
Procedure: (§1) Recombinant TACI-Fc or BCMA-Fc was coated on 96 well plates in 0.1 M carbonate-bicarbonate buffer (pH 9.6), overnight at 4° C. Plates were washed three times with 1×PBST (PBS+0.025% Tween 20) followed by blocking with 1% BSA in 1×PBS, 37° C. for 1 hour. All subsequent wash steps were carried out with 1×PBST. To assess antibody blocking, either 15 ng/mL or 50 ng/mL HA-GCN4-huAPRIL was preincubated with varying antibody concentrations ranging from 0.03-30 μg/mL in binding buffer comprised of 1% BSA and 0.025% Tween-20 in 1×PBS. Preincubation was carried out at 30° C. for 1 hour with mixing. Antibody-APRIL premix with 50 ng/mL APRIL or 15 ng/mL APRIL was then added to TACI-Fc coated or BCMA-Fc coated plates, respectively, and incubated for an additional hour at 30° C. HA-tagged APRIL binding to either receptor was quantified using a goat polyclonal anti-HA tag-HRP antibody (Abcam) added at a 1:10000 dilution followed by colorimetric development using 100 μl/well of freshly prepared TMB substrate (KPL) carried out for up to 30 minutes at room temperature before quenching enzymatic reaction by the addition of 1N sulfuric acid. ELISA signal was quantified by absorbance at 450 nm. ELISA data was analyzed by non-linear regression. IC₅₀ values were calculated based on a 4 parameter fit of antibody titration curves. […] Non-blocking antibodies Aprly-1 or Aprly-5 (Enzo Biosciences) were used as negative controls. Mouse specific, blocking antibody aprily-1-1 (Adipogen) was generally used as a positive control in experiments using mouse APRIL (HA-GCN4-mAPRIL).
Assay is based on receptor blocking ELISA using recombinant human APRIL (R&D Systems) and either human TACI-Fc (FIG. 30A) or BCMA-Fc (FIG. 30B).

[3] = molecular target: T1, HA-GCN4 hAPRIL (amino acid residues …); assay: indirect ELISA on human APRIL
[4] = molecular target: T1, HA-GCN4 hAPRIL (amino acid residues …); assay: cell-based or functional assay
[5] = molecular target: T1, HA-GCN4 hAPRIL (amino acid residues …); assay: blocking ELISA; blocked: human APRIL binding to human BCMA-Fc; design: concentration or dose not given beside the values
Procedure: as §1

[6] = molecular target: T1, HA-GCN4 hAPRIL (amino acid residues …); assay: blocking ELISA; blocked: human APRIL binding to human TACI-Fc; design: concentration or dose not given beside the values
Procedure: as §1

[7] = molecular target: T1, HA-GCN4 hAPRIL (amino acid residues …); assay: blocking ELISA, 4-parameter fit; blocked: human APRIL binding to human TACI-Fc
Procedure: as §1

[8] = molecular target: T1, HA-GCN4 hAPRIL (amino acid residues …); assay: blocking ELISA, 4-parameter fit; blocked: human APRIL binding to human BCMA-Fc
Procedure: as §1

[9] = molecular target: T1, HA-GCN4 hAPRIL (amino acid residues …); assay: blocking ELISA, 4-parameter fit; blocked: human APRIL binding to human TACI-Fc; remark: listed apart in the source
Procedure: (§2) FIGS. 19A-19B depict the antibody inhibition of APRIL binding to TNFSF receptors TACI (FIG. 19A) and BCMA (FIG. 19B). Assay is based on blocking ELISA using recombinant human APRIL (R&D Systems) and Human TACI-Fc. Inhibition was analyzed by non-linear regression using a four parameter fit.
as §1

[10] = molecular target: T1, HA-GCN4 hAPRIL (amino acid residues …); assay: blocking ELISA, 4-parameter fit; blocked: human APRIL binding to human BCMA-Fc; remark: listed apart in the source
Procedure: as §2, §1

[11] = molecular target: T1, HA-GCN4 hAPRIL (amino acid residues …); assay: blocking ELISA; blocked: human APRIL binding to human BCMA-Fc; design: concentration or dose not given beside the values; remark: listed apart in the source
Procedure: as §2, §1

[12] = molecular target: T1, HA-GCN4 hAPRIL (amino acid residues …); assay: indirect ELISA on human APRIL; column head prints IC50 (pM), legend paragraph 725 calls the values EC50
Source text: Purified antibodies were further characterized for APRIL binding, APRIL species cross reactivity (human APRIL vs. mouse APRIL), and receptor blocking activity using TACI-Fc. For binding, an APRIL-based indirect ELISA was used to determine by first approximation the relative affinity of purified anti-APRIL antibodies to either human APRIL or mouse APRIL. ELISA method was as generally described above. […] Blocking and wash steps were completed as described. Binding of anti-APRIL antibodies to APRIL was quantified using an 8 point dilution of test antibody that spanned over a four log scale. Antibody binding to APRIL was detected using a rabbit anti-mouse IgG (H+L)-HRP conjugate (Jackson ImmunoResearch Laboratories). Antibody binding data was analyzed by non-linear regression analysis using a 3 parameter fit to determine max binding and apparent EC₅₀ values. […] Mouse specific antibody Apry-1-1 (Adipogen) was likewise used for quantification of antibody binding to mouse APRIL.

[13] = molecular target: T1, HA-GCN4 hAPRIL (amino acid residues …); assay: blocking ELISA; blocked: human APRIL binding to human TACI-Fc; design: concentration or dose not given beside the values; remark: listed apart in the source
Procedure: as §2, §1

| Binder | IC50 [1] [nM] | Relative Activity (normalised to 2419) [1] | IC50 [2] [nM] | Relative Activity (normalised to 2419) [2] | EC50 [3] [nM] | also measured |
| --- | --- | --- | --- | --- | --- | --- |
| 2419-0406 (antibody, V domains shown) VH: QVQLVQSGAEVKKPGSSVKVSCKASGYTFTDYTIHWVRQAPGQGLEWMGWIYPLRGSINYAEKFKGRVTLTADKSTSTVYMELSSLRSEDTAVYFCARHGAYYSNAFDYWGQGTLVTVSS VL: EIVMTQSPATLSVSPGERATLSCRASESVDNDGIRFLHWYQQKPGQAPRLLIYRASTRATGIPARFSGSGSRTEFTLTISSLQSEDFAVYYCQQSNKDPYTFGGGTKVEIK | 0.33 | 1.2 | 0.25 | 1.05 |  |  |
| 2419-0806 (antibody, V domains shown) VH: EVQLVQSGAEVKKPGESLKISCKASGYTFTDYTIHWVRQMPGKGLEWMGWIYPLRGSINYSPSFQGQVTISADKSISTVYLQWSSLKASDTAMYFCARHGAYYSNAFDYWGQGTLVTVSS VL: EIVMTQSPATLSVSPGERATLSCRASESVDNDGIRFLHWYQQKPGQAPRLLIYRASTRATGIPARFSGSGSRTEFTLTISSLQSEDFAVYYCQQSNKDPYTFGGGTKVEIK | 0.32 | 1.17 | 0.21 | 0.89 | 0.00231 |  |
| 2419-1310 (antibody, V domains shown) VH: QVQLVQSGAEVKKPGASVKVSCKASGYTFTDYTIHWVRQATGQGLEWMGWIYPLRGSINYAQKFQGRVTMTANKSISTVYMELSSLRSEDTAVYFCARHGAYYSNAFDYWGQGTLVTVSS VL: DIVMTQSPDSLAVSLGERATINCKSSQSVDNDGIRFLHWYQQKPGQPPKLLIYRASTRESGVPDRFSGSGSGTDFTLTISSLQAEDVAVYYCQQSNKDPYTFGGGTKVEIK | 0.3 | 1.09 | 0.27 | 1.14 | 0.00219 |  |
| monoclonal antibody 2419-0205 (antibody, IgG2, V domains shown) VH: QVQLVQSGAEVKKPGSSVKVSCKASGYTFTDYTIHWVRQAPGQGLEWMGWIYPLRGSINYAQKFQGRVTITADKSTSTAYMELSSLRSEDTAVYFCARHGAYYSNAFDYWGQGTLVTVSS VL: EIVMTQSPATLSVSPGERATLSCRASESVDNDGIRFLHWYQQKPGQAPRLLIYRASNRETGIPARFSGSGSGTEFTLTISSLQSEDFAVYYCQQSNKDPYTFGGGTKVEIK | 0.31 | 1.12 | 0.17 | 0.71 | 0.00226 | IC50 (inhibition of APRIL-mediated BCMA NFκB signaling) [4]: ~0.32 nM; IC50 (inhibition of APRIL-mediated TACI NFκB signaling) [4]: ~0.81 nM |
| 2419-1306 (antibody, V domains shown) VH: QVQLVQSGAEVKKPGASVKVSCKASGYTFTDYTIHWVRQATGQGLEWMGWIYPLRGSINYAQKFQGRVTMTANKSISTVYMELSSLRSEDTAVYFCARHGAYYSNAFDYWGQGTLVTVSS VL: EIVMTQSPATLSVSPGERATLSCRASESVDNDGIRFLHWYQQKPGQAPRLLIYRASTRATGIPARFSGSGSRTEFTLTISSLQSEDFAVYYCQQSNKDPYTFGGGTKVEIK | 0.28 | 1.03 | 0.17 | 0.72 | 0.003 | IC50 (inhibition of APRIL-mediated BCMA NFκB signaling) [4]: ~0.3 nM; IC50 (inhibition of APRIL-mediated TACI NFκB signaling) [4]: ~0.66 nM |
| 2419-1305 (antibody, V domains shown) VH: QVQLVQSGAEVKKPGASVKVSCKASGYTFTDYTIHWVRQATGQGLEWMGWIYPLRGSINYAQKFQGRVTMTANKSISTVYMELSSLRSEDTAVYFCARHGAYYSNAFDYWGQGTLVTVSS VL: EIVMTQSPATLSVSPGERATLSCRASESVDNDGIRFLHWYQQKPGQAPRLLIYRASNRETGIPARFSGSGSGTEFTLTISSLQSEDFAVYYCQQSNKDPYTFGGGTKVEIK | 0.29 | 1.06 | 0.15 | 0.62 | 0.00241 |  |
| monoclonal antibody 3327 (antibody, V domains shown) VH: EVQLQQSGPELVKPGASVKMSCKASGYSFTGYFMNWVKQSHGKSLEWIGRINPYNGDTFYNQKFKGKATLTVDKSSSTAHMELRSLTSEDSALYYCASEGDGYYWYFDVWGAGTTVTVSS VL: not shown |  |  |  |  |  | % Inhibition [5]: 99%; % Inhibition [6]: 89%; IC50 [7]: 3.16 nM; IC50 [8]: 2.35 nM |
| 4540-033 (antibody, V domains shown) VH: QVQLVQSGAEVKKPGASVKVSCKASGYTFADYYINWVRQAPGQGLEWMGWIFPGSGSTYYAQKLQGRVTMTTDTSTSTAYMELRSLRSDDTAVYYCARGDSGRAMDYWGQGTLVTVSS VL: DIQMTQSPSSLSASVGDRVTITCQASQDINKYLAWYQHKPGKAPKLLIHYTSTLETGVPSRFSGSGSGTDFTFTISSLQPEDIATYYCLQYDNLLTFGGGTKVEIK | 0.35 | 1.26 | 3.68 | 15.6 |  |  |
| 3934 (antibody, V domains shown, also called monoclonal antibody 3934) VH: QVQLQQSGPELVKPGASVKLSCKAAGYIFTDYTINWVKQSPGQGLEWIGWIYPGSGNRKYNDKFKGKATMTADKSSSTAYMQLSSLTSEDSAVYFCARESNYVGYYAMDYWGQGTSVTVSS VL: DVLMTQTPLSLPVSLGDQASISCRSSQSVVNSNGNTYLEWYLQKPGQSPNLLIYKVSNRFSGVPDRFSGSGSGTDFTLKISRVEAEDLGVYYCFQGSHVPWTFGGGTKLEIK |  |  |  |  |  | IC50 [9]: 2.43 nM; IC50 [10]: 0.21 nM; % Inhibition [11]: 98%; EC50 [12]: 0.0101 nM; % Inhibition [13]: 96% |
